Data taken from patent publication US20190359666A1.

Columns and labels:
[1] = target: nrgbx (UniProt Q02297); experiment: cell-based or functional assay
[2] = target: nrgECD (UniProt Q02297); experiment: Biacore SPR, immobilised nrgECD
[3] = target: nrgEGF (UniProt Q02297); experiment: Biacore SPR

Sequence of IGFBP3-Fc-ErbB4 (Fc fusion) (chain): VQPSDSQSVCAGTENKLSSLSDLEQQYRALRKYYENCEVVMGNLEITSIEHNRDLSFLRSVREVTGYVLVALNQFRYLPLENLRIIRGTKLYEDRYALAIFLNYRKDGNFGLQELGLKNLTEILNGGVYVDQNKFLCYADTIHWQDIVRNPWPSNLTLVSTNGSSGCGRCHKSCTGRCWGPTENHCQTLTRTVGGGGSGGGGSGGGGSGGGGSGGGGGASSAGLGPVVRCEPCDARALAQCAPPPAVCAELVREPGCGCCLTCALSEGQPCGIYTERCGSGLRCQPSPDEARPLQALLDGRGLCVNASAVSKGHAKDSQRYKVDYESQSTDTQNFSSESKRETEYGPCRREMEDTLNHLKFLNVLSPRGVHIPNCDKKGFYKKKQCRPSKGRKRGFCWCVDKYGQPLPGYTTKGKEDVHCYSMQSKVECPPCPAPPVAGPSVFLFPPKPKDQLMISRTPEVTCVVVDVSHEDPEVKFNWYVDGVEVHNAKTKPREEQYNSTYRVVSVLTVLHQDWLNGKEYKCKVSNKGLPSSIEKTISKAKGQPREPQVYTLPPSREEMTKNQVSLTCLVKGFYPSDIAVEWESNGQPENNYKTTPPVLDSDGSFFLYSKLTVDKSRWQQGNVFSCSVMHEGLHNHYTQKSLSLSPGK
Sequence of IGFBP3-Fc-VEGF-ErbB4 (Fc fusion) (chain): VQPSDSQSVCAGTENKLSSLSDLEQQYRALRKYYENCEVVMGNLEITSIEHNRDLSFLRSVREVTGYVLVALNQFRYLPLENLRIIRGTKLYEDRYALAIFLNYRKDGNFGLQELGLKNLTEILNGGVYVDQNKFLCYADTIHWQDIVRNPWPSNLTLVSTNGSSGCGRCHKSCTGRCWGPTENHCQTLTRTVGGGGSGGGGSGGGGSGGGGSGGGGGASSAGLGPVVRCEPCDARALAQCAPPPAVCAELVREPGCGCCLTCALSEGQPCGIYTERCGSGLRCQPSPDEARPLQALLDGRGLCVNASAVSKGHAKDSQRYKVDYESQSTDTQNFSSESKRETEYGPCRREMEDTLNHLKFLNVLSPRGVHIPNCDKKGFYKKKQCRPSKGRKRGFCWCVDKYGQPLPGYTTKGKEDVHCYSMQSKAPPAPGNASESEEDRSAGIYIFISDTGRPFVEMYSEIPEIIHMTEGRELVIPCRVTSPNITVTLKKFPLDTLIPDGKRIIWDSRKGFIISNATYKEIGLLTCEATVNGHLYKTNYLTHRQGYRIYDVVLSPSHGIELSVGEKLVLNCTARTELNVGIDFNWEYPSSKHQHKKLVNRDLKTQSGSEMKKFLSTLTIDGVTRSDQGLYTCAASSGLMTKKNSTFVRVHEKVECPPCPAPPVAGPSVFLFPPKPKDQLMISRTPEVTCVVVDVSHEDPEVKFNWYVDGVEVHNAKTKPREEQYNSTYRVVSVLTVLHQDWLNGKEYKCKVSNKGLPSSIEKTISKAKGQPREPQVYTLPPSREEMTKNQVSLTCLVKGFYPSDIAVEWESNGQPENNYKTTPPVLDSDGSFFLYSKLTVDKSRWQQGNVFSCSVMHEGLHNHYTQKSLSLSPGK
Sequence of IGFBP3-Fc-VEGF (Fc fusion) (chain): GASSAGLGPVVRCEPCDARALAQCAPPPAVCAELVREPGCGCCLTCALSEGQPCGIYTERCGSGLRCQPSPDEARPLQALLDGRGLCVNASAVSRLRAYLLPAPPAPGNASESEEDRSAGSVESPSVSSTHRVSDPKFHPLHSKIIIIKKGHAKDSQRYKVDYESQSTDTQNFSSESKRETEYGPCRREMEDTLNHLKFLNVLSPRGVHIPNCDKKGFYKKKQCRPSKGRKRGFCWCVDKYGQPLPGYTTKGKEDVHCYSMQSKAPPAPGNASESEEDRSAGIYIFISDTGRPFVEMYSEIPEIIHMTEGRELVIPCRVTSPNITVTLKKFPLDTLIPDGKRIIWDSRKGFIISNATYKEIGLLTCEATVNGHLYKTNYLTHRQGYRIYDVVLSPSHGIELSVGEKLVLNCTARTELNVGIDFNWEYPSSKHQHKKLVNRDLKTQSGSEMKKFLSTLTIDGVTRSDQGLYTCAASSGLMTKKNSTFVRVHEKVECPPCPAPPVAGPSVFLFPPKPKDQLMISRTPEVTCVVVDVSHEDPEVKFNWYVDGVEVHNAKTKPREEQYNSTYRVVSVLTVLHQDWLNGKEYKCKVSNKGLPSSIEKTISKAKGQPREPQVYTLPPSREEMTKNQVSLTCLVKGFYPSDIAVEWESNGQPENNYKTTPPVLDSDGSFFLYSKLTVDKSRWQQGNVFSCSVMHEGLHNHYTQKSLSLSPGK
Sequence of nrgbx (Q02297 other isoform, or with tags, fused parts or gaps limits assumed): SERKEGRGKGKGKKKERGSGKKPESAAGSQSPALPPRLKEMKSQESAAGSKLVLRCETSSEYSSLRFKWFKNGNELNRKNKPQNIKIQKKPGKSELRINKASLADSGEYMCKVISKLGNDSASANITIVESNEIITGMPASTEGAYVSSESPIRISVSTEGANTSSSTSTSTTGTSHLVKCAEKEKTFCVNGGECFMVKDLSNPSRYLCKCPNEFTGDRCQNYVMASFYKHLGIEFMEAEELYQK
Sequence of IGFBP3-Fc (Fc fusion) (chain): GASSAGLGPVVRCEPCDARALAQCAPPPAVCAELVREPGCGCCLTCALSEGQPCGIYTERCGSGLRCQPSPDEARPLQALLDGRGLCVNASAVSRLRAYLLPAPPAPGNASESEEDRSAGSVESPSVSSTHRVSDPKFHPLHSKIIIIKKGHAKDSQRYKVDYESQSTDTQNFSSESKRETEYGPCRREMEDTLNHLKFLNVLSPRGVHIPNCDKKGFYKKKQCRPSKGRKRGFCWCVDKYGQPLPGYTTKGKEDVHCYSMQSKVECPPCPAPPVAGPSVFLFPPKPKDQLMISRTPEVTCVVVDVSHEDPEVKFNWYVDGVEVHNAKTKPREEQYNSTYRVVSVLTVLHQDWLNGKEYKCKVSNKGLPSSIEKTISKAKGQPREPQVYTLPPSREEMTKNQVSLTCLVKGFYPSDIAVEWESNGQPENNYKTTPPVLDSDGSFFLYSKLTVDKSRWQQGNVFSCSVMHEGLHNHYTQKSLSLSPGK

| Substance | IC50 in inhibiting neuregulin-induced proliferation [1] [nM] | Kd [2] [nM] | Kd [3] [nM] |
| --- | --- | --- | --- |
| chimera erbB4-A (Fc fusion) | 14 | – | – |
| IGFBP3-Fc (Fc fusion) | – | 5.3 | – |
| IGFBP3-Fc-VEGF (Fc fusion) | – | 0.18 | – |
| IGFBP3-Fc-VEGF-ErbB4 (Fc fusion) | – | 0.00011 | 11 |
| IGFBP3-Fc-ErbB4 (Fc fusion) | – | 0.004 | 6 |
